Molecular target: T1, IL-7R/Fc fusion protein
T1 construct: Loaded on the SPR chip; also called IL-7 receptor
Assay: SPR, IL-7R/Fc loaded chip, Scrubber2
Description: Fc fusion protein was determined by surface plasmon resonance (SPR). Association (Ka), Dissociation (Kd) and total binding constant (KD) were calculated using the Scrubber2 program (BioLogic Software).

T1 sequence (P16871 whole entry, the tested form may be a part): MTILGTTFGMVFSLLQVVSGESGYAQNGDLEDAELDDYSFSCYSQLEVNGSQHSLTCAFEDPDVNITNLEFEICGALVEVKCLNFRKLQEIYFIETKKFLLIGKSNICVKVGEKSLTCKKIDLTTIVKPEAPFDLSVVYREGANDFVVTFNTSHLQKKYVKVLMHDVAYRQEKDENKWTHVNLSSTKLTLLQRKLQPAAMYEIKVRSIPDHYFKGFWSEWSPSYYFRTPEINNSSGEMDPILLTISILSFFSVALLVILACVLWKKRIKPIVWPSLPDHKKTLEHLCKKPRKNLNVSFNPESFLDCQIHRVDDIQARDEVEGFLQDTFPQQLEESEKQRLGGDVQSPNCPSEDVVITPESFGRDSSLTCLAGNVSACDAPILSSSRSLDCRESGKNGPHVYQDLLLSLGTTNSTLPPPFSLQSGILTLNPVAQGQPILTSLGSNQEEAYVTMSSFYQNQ

B1: IL-7AT, attenuated IL-7 with Thr97 substituted by Val (ligand)
chain: DCDIEGKDGKQYESVLMVSIDQLLDSMKEIGSNCLNNEFNFFKRHICDANKEGMFLFRAARKLRQFLKMNSVGDFDLHLLKVSEGTTILLNCTGQVKGRKPAALGEAQPTKSLEENKSLKEQKKLNDLCFLKRLLQEIKTCWNKILMGTKEH
notes: also called IL-7 ligand; HMM-IL-7AT
- Kd: 100 nM

— patent US9266937 (UNIVERSITY OF CENTRAL FLORIDA RESEARCH FOUNDATION, dated 2016)
